Results: patent US20250084434A1 (KRIYA THERAPEUTICS, published 2025)

Target: IGF-1R, endogenous, on cultured cells (HT-1080, Colo205, peripheral blood fibrocytes) (human, UniProt P08069 31-1367)
Assay: cell-based or functional assay

Sequence of IGF-1R, endogenous, on cultured cells (HT-1080, Colo205, peripheral blood fibrocytes) (P08069 31-1367): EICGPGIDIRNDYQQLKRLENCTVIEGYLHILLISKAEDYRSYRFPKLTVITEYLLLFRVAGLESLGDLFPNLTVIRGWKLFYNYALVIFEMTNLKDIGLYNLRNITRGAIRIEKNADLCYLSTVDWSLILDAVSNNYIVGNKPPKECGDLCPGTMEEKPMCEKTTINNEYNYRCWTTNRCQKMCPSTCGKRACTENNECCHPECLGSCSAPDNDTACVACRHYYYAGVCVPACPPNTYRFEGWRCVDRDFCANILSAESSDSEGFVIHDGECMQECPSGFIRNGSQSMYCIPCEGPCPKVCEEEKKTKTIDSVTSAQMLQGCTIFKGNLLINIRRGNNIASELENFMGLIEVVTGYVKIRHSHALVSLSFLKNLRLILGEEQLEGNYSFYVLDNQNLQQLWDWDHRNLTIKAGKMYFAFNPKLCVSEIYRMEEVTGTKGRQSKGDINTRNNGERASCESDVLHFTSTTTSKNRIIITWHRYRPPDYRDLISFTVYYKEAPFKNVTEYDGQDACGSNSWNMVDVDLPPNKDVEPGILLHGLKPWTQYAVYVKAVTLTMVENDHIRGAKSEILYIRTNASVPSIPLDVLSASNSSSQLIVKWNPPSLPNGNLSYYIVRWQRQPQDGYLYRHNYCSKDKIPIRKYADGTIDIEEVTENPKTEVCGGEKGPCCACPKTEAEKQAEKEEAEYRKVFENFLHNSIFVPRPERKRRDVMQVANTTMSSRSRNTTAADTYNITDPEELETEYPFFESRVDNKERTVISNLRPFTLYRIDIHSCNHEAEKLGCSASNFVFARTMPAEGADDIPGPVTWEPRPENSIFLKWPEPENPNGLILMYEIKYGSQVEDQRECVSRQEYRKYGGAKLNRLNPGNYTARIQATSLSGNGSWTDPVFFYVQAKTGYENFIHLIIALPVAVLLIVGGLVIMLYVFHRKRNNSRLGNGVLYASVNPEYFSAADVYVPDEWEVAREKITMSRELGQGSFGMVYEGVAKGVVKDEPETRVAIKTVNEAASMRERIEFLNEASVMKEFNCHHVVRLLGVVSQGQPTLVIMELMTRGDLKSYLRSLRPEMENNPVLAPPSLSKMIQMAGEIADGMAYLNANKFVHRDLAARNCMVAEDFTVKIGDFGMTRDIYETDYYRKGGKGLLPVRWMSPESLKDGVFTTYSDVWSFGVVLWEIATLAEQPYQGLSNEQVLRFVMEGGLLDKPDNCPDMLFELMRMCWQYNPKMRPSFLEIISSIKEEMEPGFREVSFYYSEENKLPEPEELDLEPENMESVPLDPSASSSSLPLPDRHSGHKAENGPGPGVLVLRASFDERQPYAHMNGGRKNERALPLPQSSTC

B1: vectorized Teprotumumab (secreted from HEK-293 cells transfected with teprotumumab plasmid construct (antibody, V domains shown)
VH: QVELVESGGGVVQPGRSQRLSCAASGFTFSSYGMHWVRQAPGKGLEWVAIIWFDGSSTYYADSVRGRFTISRDNSKNTLYLQMNSLRAEDTAVYFCARELGRRYFDLWGRGTLVSVSS
VL: EIVLTQSPATLSLSPGERATLSCRASQSVSSYLAWYQQKPGQAPRLLIYDASKRATGIPARFSGSGSGTDFTLTISSLEPEDFAVYYCQQRSKWPPWTFGQGTKVESKR
B1 was tested. Which “reduction in IGF-1R activation (IGF-1R phosphorylation) by IGF in HT-1080 cells, MSD Insulin Signaling Panel (Phospho Protein)” value did it give?
The value was 4 fold.
